Measurements as given in article PMC3718342.

Target: T1, 6His-Scy (recombinant, from E. coli)
T1 chain: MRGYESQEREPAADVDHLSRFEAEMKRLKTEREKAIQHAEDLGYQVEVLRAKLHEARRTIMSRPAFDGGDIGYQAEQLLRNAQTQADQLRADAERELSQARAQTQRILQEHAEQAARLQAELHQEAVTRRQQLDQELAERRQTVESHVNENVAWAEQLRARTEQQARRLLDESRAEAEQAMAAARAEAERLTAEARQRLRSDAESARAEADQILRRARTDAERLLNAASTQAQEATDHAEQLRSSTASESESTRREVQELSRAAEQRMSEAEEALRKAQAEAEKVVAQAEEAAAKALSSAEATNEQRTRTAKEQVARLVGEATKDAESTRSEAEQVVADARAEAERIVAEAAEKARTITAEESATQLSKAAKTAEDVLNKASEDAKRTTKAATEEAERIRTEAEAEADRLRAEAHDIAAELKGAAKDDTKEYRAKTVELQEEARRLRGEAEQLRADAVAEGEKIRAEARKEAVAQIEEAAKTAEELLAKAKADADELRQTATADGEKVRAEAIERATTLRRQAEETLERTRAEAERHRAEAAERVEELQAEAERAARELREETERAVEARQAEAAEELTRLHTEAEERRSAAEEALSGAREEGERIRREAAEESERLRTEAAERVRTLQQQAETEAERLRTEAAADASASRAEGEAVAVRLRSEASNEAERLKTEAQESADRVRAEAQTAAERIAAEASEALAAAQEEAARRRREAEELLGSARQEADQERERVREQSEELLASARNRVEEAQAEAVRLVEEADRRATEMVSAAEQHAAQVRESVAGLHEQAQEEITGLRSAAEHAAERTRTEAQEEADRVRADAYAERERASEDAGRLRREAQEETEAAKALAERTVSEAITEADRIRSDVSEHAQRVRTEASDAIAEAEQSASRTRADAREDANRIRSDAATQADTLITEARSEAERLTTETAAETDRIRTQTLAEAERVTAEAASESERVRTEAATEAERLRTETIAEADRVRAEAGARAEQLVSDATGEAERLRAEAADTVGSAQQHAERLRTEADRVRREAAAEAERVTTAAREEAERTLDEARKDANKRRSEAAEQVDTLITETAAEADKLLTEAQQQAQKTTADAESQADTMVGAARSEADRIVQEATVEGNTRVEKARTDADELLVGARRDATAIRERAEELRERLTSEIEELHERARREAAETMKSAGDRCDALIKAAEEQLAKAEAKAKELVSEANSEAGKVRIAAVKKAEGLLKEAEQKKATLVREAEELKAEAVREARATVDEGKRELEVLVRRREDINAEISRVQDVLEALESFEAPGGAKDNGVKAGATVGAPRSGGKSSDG
Experiment: SPR
Settings: chain shown with the change, ParA or ParAScy- (500 RU) immobilized on CM5 in the presence of ATP, read off a plot

B1: ParA (purified recombinant wild type) S249Y; E250V (protein)
chain: MDDTPIGRAAQLAVEALGRAGEGLPRPEQTRVMVVANQKGGVGKTTTTVNLAASLALHGARVLVVDLDPQGNASTALGIDHHADVPSIYDVLVESRPLSEVVQPVPDVEGLFCAPATIDLAGAEIELVSLVARESRLQRAITAYEQPLDYILIDCPPSLGLLTVNALVAGQEVLIPIQCEYYALEGLGQLLRNVDLVRGHLNPTLHVSTILLTMYDGRTRLASQVADEVRSHFGEEVLRTSIPRSVRIYVAPSYGQTVLTYDPGSSGALSYLEAAREIALKGVGVTYDATHAHLGAQNDPSMVEGTQ
In the case of B1, the response (600 nM 6His-Scy, parent: est. 13) is reported as 4.5 RU, the response (1000 nM 6His-Scy, parent: est. 27) is reported as 12 RU and the response (2000 nM 6His-Scy, parent: est. 43) is reported as 17 RU. The response (4000 nM 6His-Scy, parent: est. 53) was 25 RU.
